Experimental data taken from paper PMC8748919, “Dynamics and mechanism of dimer dissociation of photoreceptor UVR8” (Nature Communications, 2022).

Molecular target: the molecule itself
Assay: SEC; dimer/monomer state of the purified protein before UV irradiation; 150 mM NaCl, 25 mM Tris-HCl, pH 8.0

Protein	binding result
UVR8 W250 single-Trp mutant (receptor, Arabidopsis thaliana, UniProt Q9FN03 1-440, looked up, UVR8, Arabidopsis thaliana; mutant plasmid built on the wild-type plasmid; also called W250F; source: E. coli BL21-DE3, purified (Ni-Sepharose, Source-15Q)) MAEDMAADEVTAPPRKVLIISAGASHSVALLSGDIVCSWGRGEDGQLGHGDAEDRPSPTQLSALDGHQIVSVTCGADHTVAYSQSGMEVYSWGWGDFGRLGHGNSSDLFTPLPIKALHGIRIKQIACGDSHCLAVTMEGEVQSWGRNQNGQLGLGDTEDSLVPQKIQAFEGIRIKMVAAGAEHTAAVTEDGDLYGWGWGRYGNLGLGDRTDRLVPERVTSTGGEKMSMVACGWRHTISVSYSGALYTYGFSKYGQLGHGDLEDHLIPHKLEALSNSFISQISGGWRHTMALTSDGKLYGWGWNKFGQVGVGNNLDQCSPVQVRFPDDQKVVQVSCGWRHTLAVTERNNVFAWGRGTNGQLGIGESVDRNFPKIIEALSVDGASGQHIESSNIDPSSGKSWVSPAERYAVVPDETGLTDGSSKGNGGDISVPQTDVKRVRI	binds
UVR8 W285D/W233K (receptor, Arabidopsis thaliana, UniProt Q9FN03 1-440, looked up, UVR8, Arabidopsis thaliana; mutant plasmid built on the wild-type plasmid; source: E. coli BL21-DE3, purified (Ni-Sepharose, Source-15Q)) MAEDMAADEVTAPPRKVLIISAGASHSVALLSGDIVCSWGRGEDGQLGHGDAEDRPSPTQLSALDGHQIVSVTCGADHTVAYSQSGMEVYSWGWGDFGRLGHGNSSDLFTPLPIKALHGIRIKQIACGDSHCLAVTMEGEVQSWGRNQNGQLGLGDTEDSLVPQKIQAFEGIRIKMVAAGAEHTAAVTEDGDLYGWGWGRYGNLGLGDRTDRLVPERVTSTGGEKMSMVACGKRHTISVSYSGALYTYGWSKYGQLGHGDLEDHLIPHKLEALSNSFISQISGGDRHTMALTSDGKLYGWGWNKFGQVGVGNNLDQCSPVQVRFPDDQKVVQVSCGWRHTLAVTERNNVFAWGRGTNGQLGIGESVDRNFPKIIEALSVDGASGQHIESSNIDPSSGKSWVSPAERYAVVPDETGLTDGSSKGNGGDISVPQTDVKRVRI	binds
UVR8 R286 mutated to lysine (K) (receptor, Arabidopsis thaliana, UniProt Q9FN03 1-440, looked up, UVR8, Arabidopsis thaliana; mutant plasmid built on the wild-type plasmid; also called R286K; source: E. coli BL21-DE3, purified (Ni-Sepharose, Source-15Q)) MAEDMAADEVTAPPRKVLIISAGASHSVALLSGDIVCSWGRGEDGQLGHGDAEDRPSPTQLSALDGHQIVSVTCGADHTVAYSQSGMEVYSWGWGDFGRLGHGNSSDLFTPLPIKALHGIRIKQIACGDSHCLAVTMEGEVQSWGRNQNGQLGLGDTEDSLVPQKIQAFEGIRIKMVAAGAEHTAAVTEDGDLYGWGWGRYGNLGLGDRTDRLVPERVTSTGGEKMSMVACGWRHTISVSYSGALYTYGWSKYGQLGHGDLEDHLIPHKLEALSNSFISQISGGWKHTMALTSDGKLYGWGWNKFGQVGVGNNLDQCSPVQVRFPDDQKVVQVSCGWRHTLAVTERNNVFAWGRGTNGQLGIGESVDRNFPKIIEALSVDGASGQHIESSNIDPSSGKSWVSPAERYAVVPDETGLTDGSSKGNGGDISVPQTDVKRVRI	binds
UVR8 W285/233/94/337G (receptor, Arabidopsis thaliana, UniProt Q9FN03 1-440, looked up, UVR8, Arabidopsis thaliana; mutant plasmid built on the wild-type plasmid; source: E. coli BL21-DE3, purified (Ni-Sepharose, Source-15Q)) MAEDMAADEVTAPPRKVLIISAGASHSVALLSGDIVCSWGRGEDGQLGHGDAEDRPSPTQLSALDGHQIVSVTCGADHTVAYSQSGMEVYSWGGGDFGRLGHGNSSDLFTPLPIKALHGIRIKQIACGDSHCLAVTMEGEVQSWGRNQNGQLGLGDTEDSLVPQKIQAFEGIRIKMVAAGAEHTAAVTEDGDLYGWGWGRYGNLGLGDRTDRLVPERVTSTGGEKMSMVACGGRHTISVSYSGALYTYGWSKYGQLGHGDLEDHLIPHKLEALSNSFISQISGGGRHTMALTSDGKLYGWGWNKFGQVGVGNNLDQCSPVQVRFPDDQKVVQVSCGGRHTLAVTERNNVFAWGRGTNGQLGIGESVDRNFPKIIEALSVDGASGQHIESSNIDPSSGKSWVSPAERYAVVPDETGLTDGSSKGNGGDISVPQTDVKRVRI	binds
UVR8 W39 single-Trp mutant (receptor, Arabidopsis thaliana, UniProt Q9FN03 1-440, looked up, UVR8, Arabidopsis thaliana; mutant plasmid built on the wild-type plasmid; also called W39F; source: E. coli BL21-DE3, purified (Ni-Sepharose, Source-15Q)) MAEDMAADEVTAPPRKVLIISAGASHSVALLSGDIVCSFGRGEDGQLGHGDAEDRPSPTQLSALDGHQIVSVTCGADHTVAYSQSGMEVYSWGWGDFGRLGHGNSSDLFTPLPIKALHGIRIKQIACGDSHCLAVTMEGEVQSWGRNQNGQLGLGDTEDSLVPQKIQAFEGIRIKMVAAGAEHTAAVTEDGDLYGWGWGRYGNLGLGDRTDRLVPERVTSTGGEKMSMVACGWRHTISVSYSGALYTYGWSKYGQLGHGDLEDHLIPHKLEALSNSFISQISGGWRHTMALTSDGKLYGWGWNKFGQVGVGNNLDQCSPVQVRFPDDQKVVQVSCGWRHTLAVTERNNVFAWGRGTNGQLGIGESVDRNFPKIIEALSVDGASGQHIESSNIDPSSGKSWVSPAERYAVVPDETGLTDGSSKGNGGDISVPQTDVKRVRI	binds
UVR8 R338 mutated to lysine (K) (receptor, Arabidopsis thaliana, UniProt Q9FN03 1-440, looked up, UVR8, Arabidopsis thaliana; mutant plasmid built on the wild-type plasmid; also called R338K; source: E. coli BL21-DE3, purified (Ni-Sepharose, Source-15Q)) MAEDMAADEVTAPPRKVLIISAGASHSVALLSGDIVCSWGRGEDGQLGHGDAEDRPSPTQLSALDGHQIVSVTCGADHTVAYSQSGMEVYSWGWGDFGRLGHGNSSDLFTPLPIKALHGIRIKQIACGDSHCLAVTMEGEVQSWGRNQNGQLGLGDTEDSLVPQKIQAFEGIRIKMVAAGAEHTAAVTEDGDLYGWGWGRYGNLGLGDRTDRLVPERVTSTGGEKMSMVACGWRHTISVSYSGALYTYGWSKYGQLGHGDLEDHLIPHKLEALSNSFISQISGGWRHTMALTSDGKLYGWGWNKFGQVGVGNNLDQCSPVQVRFPDDQKVVQVSCGWKHTLAVTERNNVFAWGRGTNGQLGIGESVDRNFPKIIEALSVDGASGQHIESSNIDPSSGKSWVSPAERYAVVPDETGLTDGSSKGNGGDISVPQTDVKRVRI	binds
UVR8 D129 mutated to neutral (N) (receptor, Arabidopsis thaliana, UniProt Q9FN03 1-440, looked up, UVR8, Arabidopsis thaliana; mutant plasmid built on the wild-type plasmid; also called D129N; source: E. coli BL21-DE3, purified (Ni-Sepharose, Source-15Q)) MAEDMAADEVTAPPRKVLIISAGASHSVALLSGDIVCSWGRGEDGQLGHGDAEDRPSPTQLSALDGHQIVSVTCGADHTVAYSQSGMEVYSWGWGDFGRLGHGNSSDLFTPLPIKALHGIRIKQIACGNSHCLAVTMEGEVQSWGRNQNGQLGLGDTEDSLVPQKIQAFEGIRIKMVAAGAEHTAAVTEDGDLYGWGWGRYGNLGLGDRTDRLVPERVTSTGGEKMSMVACGWRHTISVSYSGALYTYGWSKYGQLGHGDLEDHLIPHKLEALSNSFISQISGGWRHTMALTSDGKLYGWGWNKFGQVGVGNNLDQCSPVQVRFPDDQKVVQVSCGWRHTLAVTERNNVFAWGRGTNGQLGIGESVDRNFPKIIEALSVDGASGQHIESSNIDPSSGKSWVSPAERYAVVPDETGLTDGSSKGNGGDISVPQTDVKRVRI	binds
UVR8 D129 mutated to positive (K) (receptor, Arabidopsis thaliana, UniProt Q9FN03 1-440, looked up, UVR8, Arabidopsis thaliana; mutant plasmid built on the wild-type plasmid; also called D129K; source: E. coli BL21-DE3, purified (Ni-Sepharose, Source-15Q)) MAEDMAADEVTAPPRKVLIISAGASHSVALLSGDIVCSWGRGEDGQLGHGDAEDRPSPTQLSALDGHQIVSVTCGADHTVAYSQSGMEVYSWGWGDFGRLGHGNSSDLFTPLPIKALHGIRIKQIACGKSHCLAVTMEGEVQSWGRNQNGQLGLGDTEDSLVPQKIQAFEGIRIKMVAAGAEHTAAVTEDGDLYGWGWGRYGNLGLGDRTDRLVPERVTSTGGEKMSMVACGWRHTISVSYSGALYTYGWSKYGQLGHGDLEDHLIPHKLEALSNSFISQISGGWRHTMALTSDGKLYGWGWNKFGQVGVGNNLDQCSPVQVRFPDDQKVVQVSCGWRHTLAVTERNNVFAWGRGTNGQLGIGESVDRNFPKIIEALSVDGASGQHIESSNIDPSSGKSWVSPAERYAVVPDETGLTDGSSKGNGGDISVPQTDVKRVRI	binds
UVR8 W92 single-Trp mutant (receptor, Arabidopsis thaliana, UniProt Q9FN03 1-440, looked up, UVR8, Arabidopsis thaliana; mutant plasmid built on the wild-type plasmid; also called W92F; source: E. coli BL21-DE3, purified (Ni-Sepharose, Source-15Q)) MAEDMAADEVTAPPRKVLIISAGASHSVALLSGDIVCSWGRGEDGQLGHGDAEDRPSPTQLSALDGHQIVSVTCGADHTVAYSQSGMEVYSFGWGDFGRLGHGNSSDLFTPLPIKALHGIRIKQIACGDSHCLAVTMEGEVQSWGRNQNGQLGLGDTEDSLVPQKIQAFEGIRIKMVAAGAEHTAAVTEDGDLYGWGWGRYGNLGLGDRTDRLVPERVTSTGGEKMSMVACGWRHTISVSYSGALYTYGWSKYGQLGHGDLEDHLIPHKLEALSNSFISQISGGWRHTMALTSDGKLYGWGWNKFGQVGVGNNLDQCSPVQVRFPDDQKVVQVSCGWRHTLAVTERNNVFAWGRGTNGQLGIGESVDRNFPKIIEALSVDGASGQHIESSNIDPSSGKSWVSPAERYAVVPDETGLTDGSSKGNGGDISVPQTDVKRVRI	binds
UVR8 W285K/W233D (receptor, Arabidopsis thaliana, UniProt Q9FN03 1-440, looked up, UVR8, Arabidopsis thaliana; mutant plasmid built on the wild-type plasmid; source: E. coli BL21-DE3, purified (Ni-Sepharose, Source-15Q)) MAEDMAADEVTAPPRKVLIISAGASHSVALLSGDIVCSWGRGEDGQLGHGDAEDRPSPTQLSALDGHQIVSVTCGADHTVAYSQSGMEVYSWGWGDFGRLGHGNSSDLFTPLPIKALHGIRIKQIACGDSHCLAVTMEGEVQSWGRNQNGQLGLGDTEDSLVPQKIQAFEGIRIKMVAAGAEHTAAVTEDGDLYGWGWGRYGNLGLGDRTDRLVPERVTSTGGEKMSMVACGDRHTISVSYSGALYTYGWSKYGQLGHGDLEDHLIPHKLEALSNSFISQISGGKRHTMALTSDGKLYGWGWNKFGQVGVGNNLDQCSPVQVRFPDDQKVVQVSCGWRHTLAVTERNNVFAWGRGTNGQLGIGESVDRNFPKIIEALSVDGASGQHIESSNIDPSSGKSWVSPAERYAVVPDETGLTDGSSKGNGGDISVPQTDVKRVRI	binds
UVR8 R234 mutated to neutral (Q) (receptor, Arabidopsis thaliana, UniProt Q9FN03 1-440, looked up, UVR8, Arabidopsis thaliana; mutant plasmid built on the wild-type plasmid; also called R234Q; source: E. coli BL21-DE3, purified (Ni-Sepharose, Source-15Q)) MAEDMAADEVTAPPRKVLIISAGASHSVALLSGDIVCSWGRGEDGQLGHGDAEDRPSPTQLSALDGHQIVSVTCGADHTVAYSQSGMEVYSWGWGDFGRLGHGNSSDLFTPLPIKALHGIRIKQIACGDSHCLAVTMEGEVQSWGRNQNGQLGLGDTEDSLVPQKIQAFEGIRIKMVAAGAEHTAAVTEDGDLYGWGWGRYGNLGLGDRTDRLVPERVTSTGGEKMSMVACGWQHTISVSYSGALYTYGWSKYGQLGHGDLEDHLIPHKLEALSNSFISQISGGWRHTMALTSDGKLYGWGWNKFGQVGVGNNLDQCSPVQVRFPDDQKVVQVSCGWRHTLAVTERNNVFAWGRGTNGQLGIGESVDRNFPKIIEALSVDGASGQHIESSNIDPSSGKSWVSPAERYAVVPDETGLTDGSSKGNGGDISVPQTDVKRVRI	binds
UVR8 W302 single-Trp mutant (receptor, Arabidopsis thaliana, UniProt Q9FN03 1-440, looked up, UVR8, Arabidopsis thaliana; mutant plasmid built on the wild-type plasmid; also called W302F; source: E. coli BL21-DE3, purified (Ni-Sepharose, Source-15Q)) MAEDMAADEVTAPPRKVLIISAGASHSVALLSGDIVCSWGRGEDGQLGHGDAEDRPSPTQLSALDGHQIVSVTCGADHTVAYSQSGMEVYSWGWGDFGRLGHGNSSDLFTPLPIKALHGIRIKQIACGDSHCLAVTMEGEVQSWGRNQNGQLGLGDTEDSLVPQKIQAFEGIRIKMVAAGAEHTAAVTEDGDLYGWGWGRYGNLGLGDRTDRLVPERVTSTGGEKMSMVACGWRHTISVSYSGALYTYGWSKYGQLGHGDLEDHLIPHKLEALSNSFISQISGGWRHTMALTSDGKLYGWGFNKFGQVGVGNNLDQCSPVQVRFPDDQKVVQVSCGWRHTLAVTERNNVFAWGRGTNGQLGIGESVDRNFPKIIEALSVDGASGQHIESSNIDPSSGKSWVSPAERYAVVPDETGLTDGSSKGNGGDISVPQTDVKRVRI	binds
UVR8 W94/337F (receptor, Arabidopsis thaliana, UniProt Q9FN03 1-440, looked up, UVR8, Arabidopsis thaliana; mutant plasmid built on the wild-type plasmid; source: E. coli BL21-DE3, purified (Ni-Sepharose, Source-15Q)) MAEDMAADEVTAPPRKVLIISAGASHSVALLSGDIVCSWGRGEDGQLGHGDAEDRPSPTQLSALDGHQIVSVTCGADHTVAYSQSGMEVYSWGFGDFGRLGHGNSSDLFTPLPIKALHGIRIKQIACGDSHCLAVTMEGEVQSWGRNQNGQLGLGDTEDSLVPQKIQAFEGIRIKMVAAGAEHTAAVTEDGDLYGWGWGRYGNLGLGDRTDRLVPERVTSTGGEKMSMVACGWRHTISVSYSGALYTYGWSKYGQLGHGDLEDHLIPHKLEALSNSFISQISGGWRHTMALTSDGKLYGWGWNKFGQVGVGNNLDQCSPVQVRFPDDQKVVQVSCGFRHTLAVTERNNVFAWGRGTNGQLGIGESVDRNFPKIIEALSVDGASGQHIESSNIDPSSGKSWVSPAERYAVVPDETGLTDGSSKGNGGDISVPQTDVKRVRI	binds
